In patent publication US20170239346A1, “NOVEL COCAINE HAPTENS AND NANOFIBER-BASED COCAINE VACCINES” (priority 2016, published 2017):
Residues, ends and D or L forms follow the SMILES beside them. *: point of attachment. X1 = COC(=O)[C@H]1[C@@H](OC(=O)c2ccccc2)C[C@@H]2CC[C@H]1N2CCCCC(=O)*

Assay: Limulus amebocyte lysate (LAL) chromogenic end point endotoxin assay
Conditions: same volume and concentration used for immunizations

Structure (SMILES): COC(=O)[C@H]1[C@@H](OC(=O)c2ccccc2)C[C@@H]2CC[C@H]1N2CCCCC(=O)NCC(=O)NCC(=O)NCC(=O)N[C@@H](Cc1ccccc1)C(=O)N[C@@H](CCCCN)C(=O)N[C@@H](Cc1ccccc1)C(=O)N[C@@H](CCC(=O)O)C(=O)N[C@@H](Cc1ccccc1)C(=O)N[C@@H](CCCCN)C(=O)N[C@@H](Cc1ccccc1)C(=O)N[C@@H](CCC(=O)O)C(N)=O [CocKFE8] (X1-GGGFKFEFKFE-NH2)
- endotoxin levels: less than 0.1 EU/mL
